Values quoted from earlier work, collected in article PMC3476528.

Biological target: histone H3 (Homo sapiens) (UniProt P68431)

Sequence of CHD4 PHD2 (Q14839 449-496): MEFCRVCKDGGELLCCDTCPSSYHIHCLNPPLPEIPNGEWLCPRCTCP

For CHD4 PHD2 (from UniProt Q14839), the Kd is listed as 18 µM.
